Target: the molecule itself
Experiment: AUC

B1: cytosolic domain of S. cerevisiae Sey1p (residues 1-680) (domain or fragment, UniProt Q99287 1-680, looked up)
chain: MADRPAIQLIDEEKEFHQSALQYFQQCIGNRDVGLDYHVISVFGSQSSGKSTLLNVLFNTNFDTMDAQVKRQQTTKGIWLAHTKQVNTTIEIDNDRPDIFVLDVEGSDGSERGEDQDFERKAALFAIAVSEVLIVNMWEQQIGLYQGNNMALLKTVFEVNLSLFGKNDNDHKVLLLFVIRDHVGVTPLSSLSDSVTRELEKIWTELSKPAGCEGSSLYDYFDLKFVGLAHKLLQEDKFTQDVKKLGDSFVMKGTENYYFKPQYHHRLPLDGWTMYAENCWDQIERNKDLDLPTQQILVARFKTEEISNEALEEFISKYDESIAPLKGNLGSLTSQLVKLKEECLTKYDEQASRYARNVYMEKREALNTKLNSHISGTINEFLESLMEKLWDDLKLEVSSRDKATTSFVESVAAGKSKIEKEFNESMETFKKLGLLISNEEITCKFSDDIEERIKQLRDAELKAKIGRIKKNLVPELKDHVIHLLSHPSKKVWDDIMNDFESTIKDNISAYQVEKDKYDFKIGLSESENAKIYKNIRILAWRTLDTTVHDYLKIDTIVSILRDRFEDVFRYDAEGSPRLWKTEEEIDGAFRVAKEHALEVFEVLSLAVTSDNVEIIPDVPMAEEESGEDNEIYRDNEGVFHSRRFAHILTELQKENVLDQFRRQINITVLDSKRSIITTRT
  stoichiometry N: 2

Reference: article PMC4576867 (The Journal of Cell Biology, 2015)
